For one data set, the system named is PBS1a (synthetic). Kind of data set: EMSA. On the technique in general: A gel shift assay detects complexes by their altered migration in electrophoresis.
The test system of a further data set is PBS1 (synthetic). Nature of the data set: EMSA.
The subject of the next data set is PBS3 (synthetic). Nature of the data set: EMSA.
The test system of a further data set is KRAB-PBS1 (synthetic). Nature of the data set: cell_activity. Particulars: with Tat.
The next data set deals with KRAB-PBS1a (synthetic). Nature of the data set: cell_activity. Particulars: with Tat.
For another data set, the system named is KRAB-PBS2 (synthetic). Nature of the data set: cell_activity. Particulars: for activity (fold repression): with Tat.
In the next data set the test system is PBS2 (synthetic). Nature of the data set: EMSA.

Where only a bound is given, the exact number is not on record here.

Take “GTGTGGAAAATCTCTAGCAGTGGCG [HIV-1 PBS hairpin, PBS1a site]”: in the data set with PBS1a (synthetic), the Kd – broadly, the concentration at which binding is half-saturated – is 1.25 nM.

In the data set with PBS1 (synthetic), “AAATCTCTAGCAGTGGCG [HIV-1 PBS hairpin, PBS1 site]” registered a Kd of 0.79 nM. Substance “TGGCGCCCGAACAGGGAC [HIV-1 PBS hairpin, PBS3 site]” displayed a Kd in the data set with PBS3 (synthetic) of 0.93 nM. Turning to “chromosomally integrated HIV-1 LTR reporter (TZM-bl)”, the results for the activity (fold repression) in the data set on KRAB-PBS1 (synthetic) (TZM-bl luciferase), in the data set with KRAB-PBS1a (synthetic) (TZM-bl luciferase) and in the data set with KRAB-PBS2 (synthetic) (TZM-bl luciferase) were 7, 15 and 20, respectively. Consider “HIV-1 LTR-luciferase reporter (LTR658-luc)”, for which the activity (fold repression) in the data set with KRAB-PBS1 (synthetic) (HeLa) is 20; in the data set on KRAB-PBS1a (synthetic) (HeLa), 9.5; with KRAB-PBS2 (synthetic) (HeLa) it was 28. For “GCAGTGGCGCCCGAACAG [HIV-1 PBS hairpin, PBS2 site]”, in the data set on PBS2 (synthetic), the Kd is 2.4 nM.

Substance HIV-1 with wild-type B-subtype LTR had an activity (% inhibition of virus production) in the data set on KRAB-PBS2 (synthetic) (transduced PBMCs, NL4-3 challenge) of over 90.

(Values after patent US20070213269.)
